Target: human suPAR (hsuPAR) recombinant protein (human, UniProt Q03405 23-303)
Assay: BLI; avid

Sequence of human suPAR (hsuPAR) recombinant protein (Q03405 23-303): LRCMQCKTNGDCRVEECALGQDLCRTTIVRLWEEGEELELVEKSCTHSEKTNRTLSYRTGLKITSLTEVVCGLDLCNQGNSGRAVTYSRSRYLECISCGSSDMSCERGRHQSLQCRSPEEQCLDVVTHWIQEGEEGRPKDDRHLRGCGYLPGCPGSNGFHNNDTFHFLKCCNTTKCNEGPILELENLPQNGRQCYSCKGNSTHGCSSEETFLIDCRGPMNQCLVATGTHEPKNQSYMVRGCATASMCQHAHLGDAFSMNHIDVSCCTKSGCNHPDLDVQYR

- Kd: < 1 pM
B1: WAb0014 (antibody, V domains shown)
VH: QVQLVQSGAEVKKPGASVKVSCKASGYTFTNYYMHWVRQAPGQGLEWMGWIDHESGSTIYAQKFQGRVTMTRDTSTSTVYMELSSLRSEDTAVYYCARGYDVDWFVYWGQGTLVTVSS
VL: DIQMTQSPSSLSASVGDRVTITCSARQSVSYMYWYQQKPGKAPKLLIYRTSNLASGVPSRFSGSGSGTDFTLTISSLQPEDFATYYCQQYHSYPPTFGGGTKVEIKR
